This passage reports pyridoxine titer results from the supplement of paper PMC10471632, “Protein engineering and iterative multimodule optimization for vitamin B6 production in Escherichia coli” (Nature Communications, 2023).

To fix the notation:
B1: library; numbered along this chain (parent)
chain: MAELLLGVNIDHIATLRNARGTAYPDPVQAAFIAEQAGADGITVHLREDRRHITDRDVRILRQTLDTRMNLEMAVTEEMLAIAVETKPHFCCLVPEKRQEVTTEGGLDVAGQRDKMRDACKRLADAGIQVSLFIDADEEQIKAAAEVGAPFIEIHTGCYADAKTDAEQAQELARIAKAATFAASLGLKVNAGHGLTYHNVKAIAAIPEMHELNIGHAIIGRAVMTGLKDAVAEMKRLMLEARG

± gives the standard deviation of the averaged measurements.

Variants of B1 are the subject of this data set. Briefly: pyridoxine titer in culture supernatant of strain expressing the PdxJ variant; higher = more PN produced (higher in vivo pathway activity of the PdxJ variant). Particulars: host strain: E. coli LL006; 48 h; temperature: 37 °C; FM1.4. As for the experimental part:
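Rosetta-designed single to quadruple mutants of E. coli PdxJ (PNP synthase) were expressed from pRSFDuet-1 in the engineered chassis E. coli LL006 (MG1655 ΔpdxH::pdxST, pta::Eme_pdxP). Strains were grown in 24 deep-well plates in 2 mL FM1.4 glycerol medium at 37 °C and 800 rpm for 48 h. Extracellular pyridoxine (PN) titer was quantified by HPLC with fluorescence detection; two biological replicates, with the WT pdxJ strain (LL137, about 0.5 mg/L) as control.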
With MAELLLGVNIDHVATLRNARMTAYPDPVQAAFIAEQAGADGITVHLREDRRHITDRDVRILRQTLDTRMNLEMAVTEEMLAIAVETKPHFCCLVPEKRQEVTTTGGLDVAGQRDKMRDACKRLADAGIQVSLFIDADEEQIKAAAEVGAPFIEIHTGCYADAKTDAEQAQELARIAKAATFAASLGLKVNAGHGLCYHNVKAIAAIPEMHELNIGHAIIGRAVMTGLKDAVAEMKRLMLEARG [I13V G21M E104T T196C], the pyridoxine titer is 1.98 ± 0.077 mg/L.
For the variant MAELLLGVNICHIATLRNARGTTYPDPVQAAFIAEQAGADGITVHLREDRRHITDRDVRILRQTLDTRMNLEMAVTEEMLAIAVETKPHFCCLVPEKRQEVTTEGGLDVAGQRDKMRDACKRLADAGIQVSLFIDADEEQIKAAAEVGAPFIEIHTGCYADAKTDAEQAQELARIAKAATFAASLGLKVNAGHGLTYHNVKAIAAIPEMHELNIGHALIGRAVMTGLKDAVAEMKRLMLEARG [D11C A23T I218L], the pyridoxine titer was 0.39 ± 0.17 mg/L.
The same measure for MAELLLGVNIDHVATLRNARGTAYPDPVQAAFIAEQAGADGITVHLREDRRHITDRDVRILRQTLDTRMNLEMAVTEEMLAIAVETKPHFCCLVPEKRQEVTTTGGLDVAGQRDKMRDACKRLADAGIQVSLFIDADEEQIKAAAEVGAPFIEIHTGCYADAKTDAEQAQELARIAKAATFAASLGLKVNAGHGLTYHNVKAIAAIPEMHEINIGHAIIGRAVMTGLKDAVAEMKRLMLEARG [I13V E104T L212I]: 6.61 ± 2.6 mg/L; for MAELLLGVNIDHIATLRNARGTTYPDPVQAAFIAEQAGADGITVHLREDRRHITDRDVRILRQTLDTRMNLEMAVTEEMLAIAVETKPHFCCLVPEKRQEVTTTGGLDVAGQRDKMRDACKRLADAGIQVSLFIDADEEQIKAAAEVGAPFIEIHTGCYADAKTDAEQAQELARIAKAATFAASLGLKVNAGHGLVYHNVKAIAAIPEMHEINIGHAIIGRAVMTGLKDAVAEMKRLMLEARG [A23T E104T T196V L212I]: 2.61 ± 0.1 mg/L.
The same measure for MAELLLGVNIDHIATLRNARGTAYPDPVQAAFIAEQAGADGITVHLREDRRHITDRDVRILRQTLDTRMNLEMAVTEEMLAIAVETKPHFCCLVPEKRQELTTEGGLDVAGQRDKMRDACKRLADAGIQVSLFIDADEEQIKAAAEVGAPFIEIHTGCYADAKTDAEQAQELARIAKAATFAASLGLKVNAGHGLTYHNVKAIAAIPEMHELNIGHVIIGRAVMTGLKDAVAEMKRLMLEARG [V101L A217V]: 0.74 ± 0.2 mg/L.
The same measure for MAELLLGVNIDHIITLRNARGTAYPDPVQAAFIAEQAGADGITVHLREDRRHITDRDVRILRQTLDTRMNLEMAVTEEMLAIAVETKPHFCCLVPEKRQEVTTTGGLDVAGQRDKMRDACKRLADAGIQVSLFIDADEEQIKAAAEVGAPFIEIHTGCYADAKTDAEQAQELARIAKAATFAASLGLKVNAGHGLCYHNVKAIAAIPEMHELNIGHAIIGRAVMTGLKDAVAEMKRLMLEARG [A14I E104T T196C]: 1.69 ± 0.75 mg/L; for MAELLLGVNIDHIATLRNARGTAYPDPVQAAFIAEQAGADGITVHLREDRRHITDRDVRILRQTLDTRMNLEMAVTEEMLAIAVETKPHFCCLVPEKRQEVTTEGGLDVAGQRDKMRDACKRLADAGIQVSLFIDADEEQIKAAAEVGAPFIEIHTGCYADAKTDAEQAQELARIAKAATFAASLGLKVNAGHGLCYHNVKAIAAIPEMHEINIGHAIIGRAVMTGLKDAVAEMKRLMLEARG [T196C L212I]: 0.66 ± 0.014 mg/L.
Consider MAELLLGVNIDHIATLRNARGTAYPDPVQAAFIAEQAGADGITVHLREDRRHITDRDVRILRQTLDTRMNLEMAVTEEMLAIAVETKPHFCCLVPEKRQEVTTEGGLDVAGQRDKMRDACKRLADAGIQVSLFIDADEEQIKAAAEVGAPFIEIHTGCYADAKTDAEQAQELARIAKAATFAASLGLKVNAGHGLTYHNVKAIAAIPEMHEINIGHAIIGRAVMTGLKDAVAEMKRLMLEARG [L212I], for which the pyridoxine titer stood at 4.92 ± 3.9 mg/L.
Next, MAELLLGVNIDHIATLRNARGTAYPDPVQAAFIAEQAGADGITVHLREDRRHITDRDVRILRQTLDTRMNLEMAVTEEMLAIAVETKPHFCCLVPEKRQEVTTEGGLDVAGQRDKMRDACKRLADAGIQVSLFIDADEEQIKAAAEVGAPFIEIHTGCYADAKTDAEQAQELARIAKAATFAASLGLKVNAGHGLTYHNVKAIAAIPEMHELNIGHVIIGRAVMTGLKDAVAEMKRLMLEARG [A217V]: 3.92 ± 2 mg/L.
The same measure for MAELLLLVNIDHIATLRNARGTAYPDPVQAAFIAEQAGADGITVHLREDRRHITDRDVRILRQTLDTRMNLEMAVTEEMLAIAVETKPHFCCLVPEKRQEVTTEGGLDVAGQRDKMRDACKRLADAGIQVSLFIDADEEQIKAAAEVGAPFIEIHTGCYADAKTDAEQAQELARIAKAATFAASLGLKVNAGHGLTYHNVKAIAAIPEMHELNIGHAIIGRAVMTGLKDAVAEMKRLMLEARG [G7L]: 0.9583 ± 0.0052 mg/L.
Next, MAELLLGVNIDHIATLRNARGTAYPDPVQAAFIAEQAGADGITVHLREDRRHITDRDVRILRQTLDTRMNLEMAVTEEMLAIAVETKPHFCCLVPEKRQEVTTEGGLDVAGQRDKMRDACKRLADAGIQVSLFIDADEEQIKAAAEVGAPFIEIITGCYADAKTDAEQAQELARIAKAATFAASLGLKVNAGHGLTYHNVKAIAAIPEMHELNIGHALIGRAVMTGLKDAVAEMKRLMLEARG [H155I I218L]: 0.66 ± 0.014 mg/L.
For the variant MAELLLGVNIDHIATLRNARGTAYPDPVQAAFIAEQAGADGITVHLREDRRHITDRDVRILRQTLDTRMNLEMAVTEEMLAIAVETKPHFCCLVPEKRQEVTTEGGLDVAGQRDKMRDACKRLADAGIQVSLFIDADEEQIKAAAEVGAPFIEIHTGCYADAKTDAEQAQELARIAKAATFAASLGLKVNAGHGLTYHNVKAIAAIPEMHEINIGHVIIGRAVMTGLKDAVAEMKRLMLEARG [L212I A217V], the pyridoxine titer amounted to 0.69 ± 0.042 mg/L.
